For one molecule, OD (A492), Reactivity (OD 492 nm) and expected percent binding results are on record in patent US20170052184A1.

The target in test [1] is bovine serum albumin (BSA) (bovine) (UniProt P02769). As to the kind of experiment: EIA, BSA background.
Test [2] has the same target. As to the kind of experiment: EIA, BSA background. This is another data set of the same source.
For test [3], the target named is T1, HCV bt-141-161 (Peptide 2, HCVc 141-161) (Hepatitis C virus (numbering per HCV-1)).
T1 sequence (peptide, biotin (carboxy-terminal per [p-0227]; N-terminal per [p-0050])): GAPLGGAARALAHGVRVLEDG
As to the kind of experiment: EIA, captured mAb + biotin peptide.

Test [4] has as its target T2, HCV bt-134-154 (Peptide 1, HCVc 134-154) (Hepatitis C virus (numbering per HCV-1)).
T2 sequence (peptide, biotin (carboxy-terminal per [p-0227]; N-terminal per [p-0050])): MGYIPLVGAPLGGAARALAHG
Nature of the test: EIA, captured mAb + biotin peptide.

For test [5], the target named is T3, HCV bt-151-171 (Peptide 3, HCVc 151-171) (Hepatitis C virus (numbering per HCV-1)).
T3 sequence (peptide, biotin (carboxy-terminal per [p-0227]; N-terminal per [p-0050])): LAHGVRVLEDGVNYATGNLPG
As to the kind of experiment: EIA, captured mAb + biotin peptide.

The target of test [6] is HCV Core1-169 (HCV-1) (UniProt P26664). As to the kind of experiment: EIA, core1-169 captured by mAb 14-153-229.
The target of test [7] is HCV Core1-169 (hepatitis C virus (HCV-1)) (UniProt P26664). As to the kind of experiment: SPR sandwich, capture mAb C11-7.
Test [8] has the same target. Nature of the test: SPR sandwich, capture mAb C11-9.
Test [9] deals with HCV Core1-169 (HCV-1) (UniProt P26664). As to the kind of experiment: EIA, core1-169 coated on plate.
Test [10] deals with HCV Core1-169 (hepatitis C virus (HCV-1)) (UniProt P26664). As to the kind of experiment: SPR sandwich, capture mAb C11-14.
The target of test [11] is bovine serum albumin (bovine) (UniProt P02769). Nature of the test: EIA, BSA control.
The target of test [12] is HCV Core1-169 (hepatitis C virus (HCV-1)) (UniProt P26664). As to the kind of experiment: SPR sandwich, capture mAb C11-3.

Like-named read-outs stand apart in the source and are kept apart here.

bovine serum albumin (BSA) (bovine), sequence (P02769 25-607 limits assumed): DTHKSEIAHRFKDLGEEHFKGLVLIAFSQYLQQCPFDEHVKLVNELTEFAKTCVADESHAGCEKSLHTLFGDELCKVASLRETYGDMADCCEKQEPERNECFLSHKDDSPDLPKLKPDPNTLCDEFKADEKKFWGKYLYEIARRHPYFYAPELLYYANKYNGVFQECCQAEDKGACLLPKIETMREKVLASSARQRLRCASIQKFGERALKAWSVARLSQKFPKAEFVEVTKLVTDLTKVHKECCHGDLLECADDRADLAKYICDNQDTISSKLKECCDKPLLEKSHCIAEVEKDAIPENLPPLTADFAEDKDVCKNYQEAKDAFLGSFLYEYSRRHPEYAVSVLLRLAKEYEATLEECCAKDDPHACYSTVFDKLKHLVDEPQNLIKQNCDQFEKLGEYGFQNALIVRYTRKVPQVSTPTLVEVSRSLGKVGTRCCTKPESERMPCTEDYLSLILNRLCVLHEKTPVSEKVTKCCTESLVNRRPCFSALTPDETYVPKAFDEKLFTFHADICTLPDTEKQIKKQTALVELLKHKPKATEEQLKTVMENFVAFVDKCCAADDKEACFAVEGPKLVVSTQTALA
bovine serum albumin (bovine), sequence (P02769 25-607 limits assumed): as above

B1: HCV 208A-967 (antibody, V domains shown)
VH: QVQLEESGPGLVAPSQSLSITCTVSGFSLTSYGVHWVRQPPGKGLEWLGVIWAVGSINYNSALMSRLSISKDNSKSQVFLKMNSLRTDDTAMYYCARDRTTATPFFDYWGQGTTLTVSS
VL: DIVLTQSPASLAGSLGKRAPISCKASESVNFFGTNLIHWYQQKPGQPPKLLIYHASNLKTGVPARFRGRGSKTNFPLPIDPVEENDVAIYYCLQNRKIPLTFGVGTKLELKR
As to B1, the OD (A492) was determined as 1.3 OD in test [1], 0.15 OD in [2], 0.18 OD with HCV Core1-169 (HCV-1) [6] and 1.08 OD in the test with HCV Core1-169 (HCV-1) [9]. In addition, the Reactivity (OD 492 nm) was determined as 0.73 OD units in test [3], 0.52 OD units in test [4], 0.18 OD units in test [5] and 0.07 OD units in [11]. The expected percent binding in [7], in [8], in [10] and in [12] was under 1% in each case.
